Assay: yeast display, Sf9 membrane polyspecificity reagent, FACS + sequencing; frameworks hold sequencing errors
Procedure, shortened: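 In a synthetic yeast display library (Saccharomyces cerevisiae BJ5465), nanobody expression was induced with galactose for 36–48 hours. FACS gates were set low and high (top ~1%) using anti-HA fluorescence for expression and streptavidin fluorescence for binding of the Sf9 membrane reagent. Each polyreactivity label is drawn from the gate of origin.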

QVQLVESGGGLVQAGGSLRLSCAATGRIFPYYAMGWYRQAPGKERALVATISSGGRTNYADSVKGRFTISRDNAKNTVYLQMNSLNPEDTAVYYCAADYRKSRVFYGLYYWGQGTQVTVSS
polyreactivity (PSR sort gate): high polyreactivity

QVQLVESGGGLVQAGGSLRLSCAASGRTFYLNVMGWYRQAPGKEREFVASISTTGGSTYYADSVKGRFTISRDNAKNTVYLQMNSLKPDDTAVYYCAASLRYWARNYWGQGTQVTVSS
polyreactivity (PSR sort gate): high polyreactivity

QVQLVESGGGLVHAGGSLRLSCAASGSTFLPNAMVWYRQSHGKERELVAAISYRGGGTFYADSVKGRFTISRDNAKNTVYLQMNSLKPEDTAVYYCAADWSWFDNFDYWGQGTQVTVSS
polyreactivity (PSR sort gate): low polyreactivity

QVQLVESGGGLVQAGGSLRLSCAASGSIFWKYAMGWYRQAPGKERELVAAISRSSSTTYYADSVKGRFTISRDNAKNTVYLQMNSLKPEDTAVYYCAAYYRSRVSDDYWGQGTQVTVSS
polyreactivity (PSR sort gate): high polyreactivity

QVQLVESGGGLVQAGGSLRLSCAASGLIFYTYAMGWYRQAPGKERELVATISGRGGSTYYADSVKGRFTISRDNAKNTVYLQMNSLKPEDTAVYYCNVVPSTYYQYDYWGQGTQVTVSS
polyreactivity (PSR sort gate): high polyreactivity

QVQLVETGGGLVQAGGSLRLSCAASGCTFKYNTMGWYRQAPGKERELVAAITSGGGSTNYADSVKGRFTISRDNAKNTVYLQMNSLKPEDTAVYYCAAYRRNTYWGQVTQVTVSS
polyreactivity (PSR sort gate): high polyreactivity

QVQLVESGGGLVQAGGSLRLSCAASGFIFGPYAMGWYRQAPGKERELVAAISRRGGSTYYADSVKGRFTISRDNAKNTVYLHMNSLKPEDTAVYYCATAGWGEAEGGYWGQGTQVTVSS
polyreactivity (PSR sort gate): high polyreactivity

QVQLVESGGGLVQAGGSLRLSCAASGSIFKYYAMGSSRQAPGKERELVAAISTGGTTNYADSVKGRFTISRDNAKNTVYLQMNSLKPEDTAVYYCNRDYLVRSRYKYYYWGQGTQVTVSS
polyreactivity (PSR sort gate): low polyreactivity

QVQLVESGGGLVQAGGSLRFSCADSGRILSLYAMGWSRQAPGKERELVASINWSDGSTYYADSVKGRFTISRDKAKNTVYLQMNSLKPEDTAVYYCNVDVRSYVAGYDYWGQGTLVTVSS
polyreactivity (PSR sort gate): low polyreactivity

QDQLVESGGGLVQAGGILRLSSSASGFTFAYYAMGWYRQSTGKERQLVAAISSRGGSTYYADTVKGRFSISRDNAKNTVYLQMNILKPEDTAVYYCAAEFGLWPYEYGYCGQGTQVTVSS
polyreactivity (PSR sort gate): high polyreactivity

QVQLVESGGGLVQAGGSLRLSCAASGFIFRYYAMGWSRQAPGKERELVAVISSNGARTSYADSVKGRFTISRDNAKNTVYLQMNSLKPEDTAVYYCNARAWSRFPPVGHDYWGQGTQVTVSS
polyreactivity (PSR sort gate): high polyreactivity

QVQLVESGGGLVQAGGSLRLSCAASGRTFPRNGMGWYRQAPGKERELVAAISWSGGRTYYADSVKGRFTISRDNAKNTVYLQMNSLKPEDTAVYYCNALYFRKAGYWGKGTQVTVSS
polyreactivity (PSR sort gate): high polyreactivity

QVQLVESGGGLVQAGGSLRLSCAASGYTLTPYTMGWYRQAPGKERELVAAINRSGGSTYYADSVKGRFTISRDNAKNTVYLQMNSLKPEDTAVYYCAAYGYYNFGYYYWGQGTQVTVSS
polyreactivity (PSR sort gate): high polyreactivity

QVQLVESGGGLGQAGGSLRLSCAASGRTFGDYVMGWYRQAPGKEREFVAAITDSGDRTYYADSVKGRFTISRDNAKNTVYLQMNSLKPEDTAVYYCNDEIWDWYYWYAYWGQGTQVTVSS
polyreactivity (PSR sort gate): high polyreactivity

QVQLVESGGGLVQAGGSLRLSCAASGRTFTHYAMGWYRQAPGKERELVAAISSGGGTYYADSVKGRFTISRDNAKNTVYLQMNSLKPEDTAVYYCNADYTNYHDPFRTYGYWGQGTQVTVSS
polyreactivity (PSR sort gate): low polyreactivity

QVQLVESGGGLVQAGGSLRLSCAASGFTFGKYTMGWYRQAPGKERELVAAISRSGGSTYYADSVKGRFTISRDIAKNTVYFQMNSLKPEDTAVYYCAVDYTYDMDYWGQGTHVTVSS
polyreactivity (PSR sort gate): high polyreactivity

QVPLVESGGGLVQAGGSLRLSCAASGYIFEKYAMGWYRHAPGKERELVAAITVTGASTYYADSVKGRFTSSRDNAKNTVYLQMNSLKPEDTAVYYGAAKTLSVGYVDPDYGRDYWGQGTQLTVSS
polyreactivity (PSR sort gate): low polyreactivity

QVQLVESGGGLVQAGGSHRLTCAASGSTFRRYARGWYRQAPGKERELVATISSGRRTNYADSVKGRFTISRDNAKNTVYLQMNSLKPEDTAVYYCAAAYWSSRADTVIKRYYWGQGTQVTVSS
polyreactivity (PSR sort gate): high polyreactivity

QVQLVESGGGLVQAGGSLRLSCAASGRIRVQNDMGWYRQAPGKERELVAAIRSDGSPSYSDSVKGRFTISRDNAKNTVYLQMNSLKPEDTAVYYCAARIDWTGGEYDYWGQGTQVTVSS
polyreactivity (PSR sort gate): low polyreactivity

QVQLVESGGGLVQAGRSLRLSCPASGSIFIIYAMGWYRQQPGKERELVAAISASGGITYYADSVKGRFTISRDNAKNTVYLQMNRLKPEDTAVYYCAARRYRYFWVPRPYDYWGQGTQVTVSS
polyreactivity (PSR sort gate): high polyreactivity

QVQLHESPGGLVLAGGSLRLSCAESGYISWSFTMGLYRKAPGKEREFVAGITYGGISYYADSVKGRFTISRDNAIITVYLQMNTLKPEDTAVYYCAAPQTNPYVYVYWGQGTQVTVSS
polyreactivity (PSR sort gate): high polyreactivity

QVQLVESGGGLVQAGGSLRLSCAASGITFYGNAMGLYRQAPGKERELVANTYYADSVKGRFTISRDNAKNTVYLQMNSLKPEDTAVYYCANRNARYRSLPPGYDYWGLGTQVTVSS
polyreactivity (PSR sort gate): low polyreactivity

QVQLVDSGGGLVQAGGSLRLSCAASGFTIHYKAMGWYRQAPGKERELVATISKSAGITSYADSVKGRFTISRDNAKNTVYLQMNSLNPEDTAVYYCAADKSYRRVYYWGQGTQVTVSS
polyreactivity (PSR sort gate): low polyreactivity

QVQLVESGGGFVQAGGSLRLSCAASGLTFYGNVMGWYRQAPGKERELVAAITRRGTSTYYADSVKGRFTLSRDYAKNTVYLQMNRLKPEDTAFYYCAAGTAYSRFGYWGQGTQVTVSS
polyreactivity (PSR sort gate): high polyreactivity

QVQLVESGRGLVQAGGSLRLICAASGLTFHRYAMGWYRQAPGKERELVAALTWRGVSTYYADSVKGRFTISRDNAKNTVYLQMNSLKPEDTAVYYCAADDYFYDPYEYWGQGTIVTVSS
polyreactivity (PSR sort gate): high polyreactivity

QVQLVESGGGLVQAGGSLRLSCAASASIFLEYAMGWYRQAPGKERELVAGITISGGSTYYADSVKGRFTISRDNAKNTVYLQMNSLKPEDSAVYYCAKVAPRSSSSLEYYYWGQGTQVTVSS
polyreactivity (PSR sort gate): low polyreactivity

QVQLVESGGGLVQAGGSLRLSCAASGFILRNNAMGWSRQAPGKEREFVAAISSGTRTNYADSVKGRFTISSDNAKNTVYLQMNSLKPEDTAVYYCDAYPTRYYVGYDYWGQGTQVTVSS
polyreactivity (PSR sort gate): high polyreactivity

HVQLVESGGGLVQAGGSLRLSCAASGSTIGRYAIGWYRQAPGEERELVAAISYSGGSTYYADSVKGRFTISRDNAKNTVYIQMNSLKPEDTAAYYCAKGLSTGRAYRGYDYWGQGTQVTVSS
polyreactivity (PSR sort gate): high polyreactivity

QVQLVESGGGLVQAGGSLRLSCAASRSTLCQNAMGWYRQAPGKEREFVADNSGSGDSTYYADSVKGRFTISRDHANNTVYLQLNSLTPEDTAVYYCATPSPHVGLKWEYDSWGQGTQVTVSS
polyreactivity (PSR sort gate): low polyreactivity

QVQLVESGGGLVQAGGSLRLTCAASGSTFQTYVMGLYIQAPGKERELVAAISSGGSTNYADSVKGRFTISRDNAKNNVYLLMKSLKPEDTAVYYCAAVYWAWGKNEYEYWGQGTQVTVSS
polyreactivity (PSR sort gate): low polyreactivity

QVQLVESGGGLVQAGGSLRLSCAASGSTLWVYAMGSYRQAPGKERELVAAITQSTGDTHYADSVKGRFTISRDNAKNTVYLQMNSLKPEDTAVYYCAADSYLSVYDPYGYWGQGTQVTVSS
polyreactivity (PSR sort gate): low polyreactivity

QEQLQESGGGLVQAGGSLRLSCAASGSISQAWYMGWYRQAPGKERELVAAINVGAITYYADSVKGRFSISRDNAKNTVYLPMNSLTPEDTGVYYCAVDQYSEAYYDYWGQGTQATVSS
polyreactivity (PSR sort gate): high polyreactivity

QVQLVESGGGLVQAGGILRLSCAASGLTFAKNAMGWYRQAPGKERELVAAITTGGSTYYADSVKGRFTISRDNAKNTVYLQMNSLKPEDTAVYYCAAQILVRHIPYYFWGQGSQVTVSS
polyreactivity (PSR sort gate): high polyreactivity

QVQLVESGGGLVQAGGSHRLSCAASGFIFSYYAMGWYRQAPGKERELVAAITDSGGSTYYADSVKGRFTISRDNAKNTVYLQMNSLKPEDTAVYYCAATYWWAYVWAYSHVKSTNDYWGQGTQVTVSS
polyreactivity (PSR sort gate): low polyreactivity

QVQLVESGGGLVQAGGSLRLTCAASGSTLWYYAMGWYRQAPGKERELVADITSSGNTNYADSVKGRFTISRDNAKNTVYLQMNSLKPEDTAVYYCAADSANYQWYLSWQKDDYWGQGTQVTVSS
polyreactivity (PSR sort gate): low polyreactivity

QVQLVESGGGLVQAGGSLRLSCAASGIIFPGYTMGWSRQAPGPEREVVAAISSGGRTNYADSVKGRFTISRDNAKNTVYLQMNSLKPEDTAVYYCAATRVASLGSPMYYCGQGTQVTVSS
polyreactivity (PSR sort gate): high polyreactivity

QVQLVESGGGLVQAGGSLRLSCAASGLIFYTYAMGWYRQAPGKERELVAGISRSGTSTRYADSVKGRFTISRDNAKNTVYLQMNSLKPEDTAVYYCNAVGRSKHGYSRSYYWGQGTQVTVSS
polyreactivity (PSR sort gate): high polyreactivity

QVQLVESGGGLVQAGGSLRLSCAASGSTVAYYAMGWYRQAPGKERELVAAITIDGRTSYADSVKGRFTISRDNAKNTVYLQMNSLKREDTAVYYCARGYFPYGYPWRWGYDRFDYWGQGTQVTVSS
polyreactivity (PSR sort gate): low polyreactivity

QVQLVESGGGLVQAGGSLRLSCAASGITLYRYAMGWYRPAPGKERELVADISSGGGTTYYADSVKGRFTISRDNAKNTVSLQMNSLKPEDTALYYCAADYGFRYPLYDYWGQGTQVTVSS
polyreactivity (PSR sort gate): low polyreactivity

QVQLVESGGGLVHAGGSLRLSCAASGRILGKYANGWYRQAPGKERELVAAINWRGGRTYADSVKGRFTISRDNSKNNVYLQMNSLKPEDTAVYYCAAVWQSPRPGYGYWGQGTQVTVSS
polyreactivity (PSR sort gate): high polyreactivity

QVQLVESGGGLVQAGGSLRLSCAASGSIFTRNVMGWSRQAPGKERELVAAITGSGGRTYYADSVKGRFTISRDNAKNTVYLQMNSLKPEDTAVYYCAKSRPGTYDYWGQGTQVTVSS
polyreactivity (PSR sort gate): high polyreactivity

QVQLVDSVGGLVQAGGSLRLSCAASGFTFGVNVMGWYRQEPGKEREFVAAITWSGDSTYYADSVKGRFTISRDNAKNTVYLQMNSLKPEDSAVYYCAADGNTWPADFLSYYFEFDEYWGQGTQVTVSS
polyreactivity (PSR sort gate): low polyreactivity

QVQLQESVGGLVQAGGSLLLSCAASGNIFPTDRMGWYRQAPGKELEFVATISHGGSTNYADSVKGRFTISRDNAKNTVYLEMNSLKPEDTAVYYCAVWSLGRWRHYFWGQGTQVTVSS
polyreactivity (PSR sort gate): low polyreactivity
